Laboratory results published in article PMC8181454.

Target: recombinant HPV16 E6 protein (human papillomavirus type 16) (UniProt P03126)
Assay: SPR

UniProt P03126, sequence (P03126 whole entry): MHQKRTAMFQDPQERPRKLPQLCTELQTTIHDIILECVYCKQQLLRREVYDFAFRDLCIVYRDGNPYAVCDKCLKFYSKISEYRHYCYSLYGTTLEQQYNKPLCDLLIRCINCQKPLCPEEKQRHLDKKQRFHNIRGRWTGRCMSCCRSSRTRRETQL

koff: 0.000886 s⁻¹
Substance: ZWT affibody (original affibody scaffold molecule, wild-type Z domain) (designed binder)
